Publication PMC13379313, “Clocked stepping of an artificial protein walker along a DNA track”

T1: MetJ (UniProt P0A8U6 2-105, Q45K)
T1 sequence: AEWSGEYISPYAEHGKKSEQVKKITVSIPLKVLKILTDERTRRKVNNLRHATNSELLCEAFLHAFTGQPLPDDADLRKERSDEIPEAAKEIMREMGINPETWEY

B1: metJ single site (NR139 top/bottom) (dsDNA)
DNA 1: CCACGCCCTAAGGTATGCTAGTTTGAGACGTCTCAAAACAGGA
DNA 2: TCCTGTTTTGAGACGTCTCAAACTAGCAT
B2: trpR single site (NR206/NR207) (dsDNA)
DNA 1: CCACGCCCTAAGGTGAGCATAGTGGTACTCGCTAGCGAGTACCTCTGACTTC
DNA 2: GAAGTCAGAGGTACTCGCTAGCGAGTACCACTATGCTC

Experiments:
MetJ = target: T1, MetJ; assay: SPR; SAM; SPR: 1 mM SAM, 0.4 mM CoCl2 or 0.5 mM Trp, 100 ul/min, streptavidin CM5 chip; running buffer, pH and temperature not in material (DNA annealed in 25 mM HEPES pH 7.4, 200 mM KCl, 5 mM MgCl2); settings: protein: recombinant; tags: 8xHis, TEV-cleaved; chain copies: 2; label: 3' biotin on anchor strand S4 (SPR); 5' overhang 14 nt of strand 1, annealed to biotin anchor S4 in SPR
TrpR = TrpR (UniProt P0A881 2-108); assay: SPR; Trp; SPR: 1 mM SAM, 0.4 mM CoCl2 or 0.5 mM Trp, 100 ul/min, streptavidin CM5 chip; running buffer, pH and temperature not in material (DNA annealed in 25 mM HEPES pH)

Row | Binder | Kd (MetJ) [nM] | Kd (TrpR) [nM]
1 | B1 | 4 ± 0.4 | 
2 | B2 |  | 48
